Measurements taken from the supplement of paper PMC9170038.

Assays:
MS2 coat protein [1] = assay: apparent KD of MS2 coat protein, switch ON state; designed switch direction (-1 OFF switch, 1 ON switch): -1; higher = weaker reporter binding; settings: FMN input: 0 or 200 uM; Eterna round: R93 (includes R88 designs)
Method in brief: (§1)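 Apparent KD per design is the median of normalised cluster binding-curve fits. Designed RNA switches transcribed on-chip from Illumina sequencing clusters were titrated with SNAP-549-labelled MS2 coat protein in twofold steps from 0.7 or 1.5 nM to 3 µM, with 0.8–1.5 h down to 10–20 min per step. Buffer: 100 mM Tris-HCl pH 7.5, 80 mM KCl, 4 mM MgCl2, without or with constant ligand.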

MS2 coat protein [2] = assay: apparent KD of MS2 coat protein, switch OFF state (with FMN for OFF switches, without FMN for ON switches); designed switch direction (-1 OFF switch, 1 ON switch): -1; higher = weaker reporter binding; settings: FMN input: 0 or 200 uM; Eterna round: R93 (includes R88 designs)
Method in brief: as §1

Sequence | apparent KD of MS2 coat protein (MS2 coat protein [1]) [nM] | apparent KD of MS2 coat protein (MS2 coat protein [2]) [nM]
GAAAAGUGAGGAUAUACAUGAGGAUCACCCAUGUGUAUAAAAAAUUACACAAAAGAAAGUAGAAGGCACUAAAG [Mat - Exclusion 3 - Mayanna mod - D113] | 17.7 | 26.5
UCGAUGCGAGGAUAUACUAAGGCAACUACUGCAGCUCAAAAACAUGAGGAUCACCCAUGUAGAAGGCGCAUAUA [JR_Exc002_Sub304] | 19.6 | 18.1
AGCUAGUCAGGAUAUGCGAAUAUGUCAAAAGACGUGAAGGGACAUGAGGAUCACCCAUGUAGAAGGGACUAGCA [Diamond 3] | 32.4 | 36.5
AAAAUGUCAGGAUAUGUAAAAAAAAAAAAAAAAAAAAAAAUACAGAAGGGACAUGAGGAUCACCCAUGUCAGGG [EX4 390: Minimal 2] | 113 | 79
AACAAACAUGAGGAUCACCCAUGUGAGGAUAUGAAAAUAAAUAAAAAUAAAAUAAAAAUCAGAAGGCACAACAA [JR_Exc001_Sub003] | 25.6 | 28.2
AAAAGGUCAGGAUAUGCCCACCUGGUGGAAAAACCAGGUGGGCAGAAGGGACAUGAGGAUCACCCAUGUAAAAA [Excls4-Ii] | 53.1 | 78.2
AACUGACAUGAGGAUCACCCAUGUCAGGAUAUGAUUUGACGAAAAAAAAAAAGUCAUAUCAGAAGGGACAUGGG [Design 82: Sub-opt V] | 19 | 17.6
AAAAAGAGAGGAUAUACAUGAGGAUCACCCAUGUGAAAAAAAAAAAAAGGGAAAAGAUGUAGAAGGCUCAAAAA [65%, Moding Exclusion3-cac2, 16] | 30.4 | 32.1
GCUGUGGAAGGAUAUACAUGAGGAUCACCCAUGUGAGAGAAAAAAGUGAGAAAGAAAAGUAGAAGGUCCGUAGG [salish99-ex3-98] | 40.3 | 66
AGCUAGUCAGGAUAUACGAAAAUGUCAGAAGCUGUGAAGGGACAUGAGGAUCACCCAUGUAGAAGGGACUAGCA [Diamond 38] | 69.1 | 218
AAAAAGUCAGGAUAUACAAAAGUGCGAAAGCACAAAAAGGGACAUGAGGAUCACCCAUGUAGAAGGGACAAGAA [Married to this design, 61% 4] | 73.3 | 124
AAAAAACAUGAGGAUCACCCAUGUCAGGAUAUGCGAAGCAAAAAAAAAAAAAAGCGAAGUAGAAGGGACUAAAA [Exclusion1 Malc#6] | 24.4 | 40.1
AAAAAGGCAGGAUAUACAUGAGGAUCACCCAUGUAAAAAAAAACAAGAGAAAAAAAAUGUAGAAGGGCCAAAAA [Ex3 Malc#3] | 26.8 | 26
AAGAAGCGAGGAUAUACAUGAGGAUCACCCAUGUAAAAGAAAGAGGGAAAAGAGAAAAGUAGAAGGCGCAAGAA [Philip III Arrhidaeus] | 84.2 | 123
AGAAAACAUGAGGAUCACCCAUGUCAGGAUAUCCAAAUAAAAAUAAAAUAAAAUAAAAGGAGAAGGGACAAAAG [May 1] | 49.2 | 66.9
AAAAAGCGAGGAUAUACAUAGCUAAGACAUGUAAGCGAAAAACAUGAGGAUCACCCAUGUAGAAGGCGCAAAAA [Exclusion2-02] | 16.8 | 16.5
AGUCGGCGAGGAUAUACAUGAGGAUCACCCAUGUGAGAGAAAAAAGUGAGAAAGAAAUGUAGAAGGCGCUGACA [JL Lego Mod 1] | 90.8 | 36.8

Sequence | apparent KD of MS2 coat protein (MS2 coat protein [1]) [nM] | apparent KD of MS2 coat protein (MS2 coat protein [2]) [nM]
AAACCACAUGAGGAUCACCCAUGUUAGGAUAUGAACGAAAAUAAAUAAAAAUAAAAGUUCAGAAGGGACAAAAA [66%, Wbt, 21] | 21.5 | 14.9
AAAGGACAUGAGGAUCACCCAUGUGAGGAUAUGCUCUACGAACGAAUACACAUGAGAAGCAGAAGGCACAUAAG [try 1] | 43.8 | 142
AAGAACUGAGGAUAUACUUUGGGAAAAGAAAAGAUGAUGUUACAUGAGGAUCACCCAUGUAGAAGGCAGAAGAA [Mat - Exclusion 2 - Mod - D153] | 27 | 37
GGUUGUCGAGGAUAUACAUGAGGAUCACCCAUGUGAGAGAAAAAAGUGAGAAAGAAAAGUAGAAGGUGGUGACG [salish99-ex3-71] | 57.6 | 92.9
GAUAGGCGAGGAUAUACAUGAGGAUCACCCAUGUAAGUAAGCCUGGCUGAAACUGAAUGUAGAAGGCGCAAAUU [Mat - Exclusion 3 - Neo mod - D70] | 17.8 | 67.7
AAAAAUUGAGGAUAUACAUGAGGAUCACCCAUGUUAGAACAAAAAAAAGGGAAAGAAAGUAGAAGGCAAUAAAA [Ex 3 May 26] | 20 | 26.9
CGCAAGUCAGGAUAUUCGACAAGUAAAUCAGUAGAUCAGAAGAAGAAGGGACAUGAGGAUCACCCAUGUAAGUA [JR_Exc004_Sub404] | 29.1 | 26.3
ACUUGACAUGAGGAUCACCCAUGUCAGGAUAUAGUAGGACAAAUAAAUAAAAGUUCUACUAGAAGGGAUAUGGG [Design 20: G-U+ 4] | 20.7 | 36.5
UAGAACCUAGGAUAUACUUGGGAAACUAAUGCAAAGAUAUAACAUGAGGAUCACCCAUGUAGAAGGAGGAGUAA [JR_Exc002_Sub019] | 84.5 | 132
AAGAAGUGAGGAUAUCGAAGACAGACGAAAAGUCUGUCAAACGAGAAGGCACAUGAGGAUCACCCAUGUGGAAA [What have we learned so far? 64% 4] | 30.5 | 34.6
AGCUAGUCAGGAUAUACAAAGAUGUCGAAAGACGUCAAGGGACAUGAGGAUCACCCAUGUAGAAGGGACUAGCA [Mod of Janderson's WEB Mod v.3] | 56.2 | 197
GCUGGCGAAGGAUAUACAUGAGGAUCACCCAUGUGAGAGAAAAAAGUGAGAAAGAAAAGUAGAAGGUCGUUAGG [salish99-ex3-96] | 31.7 | 70.4
AGAAAACAUGAGGAUCACCCAUGUCAGGAUAUCUAAAAGAAAAGAAAAGAAAGAAGAAGGAGAAGGGACAAGAA [Djoser] | 21.2 | 21.8
ACAUCUAGAGGAUAUACAUGGAAAAAAAAAAAAAAAAAACUACAUGAGGAUCACCCAUGUAGAAGGCUAGAUGA [Ex2 Design 192: Random 12] | 40.4 | 35.7
CAGUACUGAGGAUAUACAUGAGGAUCACCCAUGUGAUCAAGCUACGAAAGUAGCAAAUGUAGAAGGCAGUACUG [Ex3: 809] | 40.7 | 31.7
GUCCUACAUGAGGAUCACCCAUGUCAGGAUAUGCACCGGUUGCUUUAGACCGGUAAAGGCAGAAGGGACGGGUG [Orzadima] | 23.2 | 19.8
AGUUGGCGAGGAUAUACAUGAGGAUCACCCAUGUAAGAGUAAAGAGUGAGAAAGAGAAGUAGAAGGCGCUGACA [Ruby 57] | 53 | 247
